Measured values as given in patent publication US5908761, “Galectin-8 and galectin-8-like proteins and DNA molecules coding therefor” (Yeda Research and Development Co. Ltd., dated 1999).

Target: the molecule itself
Assay: gel filtration over Superdex-200 HR FPLC column (self-association)
Description: Approximately 100 μg protein was loaded onto Superdex-200 HR (Pharmacia) FPLC column equilibrated with buffer A (PBS, 4 mM β-mercaptoethanol, 2 mM EDTA), and run for 60 min at 0.5 ml/min. O.D. was measured at 215 nm, and the column profile was obtained by running separately standard marks.
The primary structure of galectin-8 resembles that of galectin-4, namely, two homologous (38% identity) carbohydrate-binding regions (CRDs) linked by a short ≈30-amino acids linking peptide. This unique architecture is shared so far only by two galectins: rat galectin-4 (12) and its *C. elegans* homologue (13). Other galectin types, that contain a single CRD, exist and function as non-covalent dimers, which provides them with the potential to aggregate or agglutinate glycoconjugates. Since galectin-4 exists as a monomer, experiments were carried out to determine whether galectin-8 exists as a monomer or a dimer. […] Hepatic galectin-8 (FIG. 6) has a similar mobility on SDS-PAGE as its recombinant counterpart (FIG. 5).

B1: tag-free recombinant galectin-8 (other)
chain: MLSLSNLQNIIYNPTIPYVSTITEQLKPGSLIVIRGHVPKDSERFQVDFQHGNSLKPRADVAFHFNPRFKRSNCIVCNTLTNEKWGWEEITHDMPFRKEKSFEIVIMVLKNKFHVAVNGKHILLYAHRINPEKIDTLGIFGKVNIHSIGFRFSSDLQSMETSTLGLTQISKENIQKSGKLHLSLPFEARLNASMGPGRTVVVKGEVNTNATSFNVDLVAGRSRDIALHLNPRLNVKAFVRNSFLQDAWGEEERNITCFPFSSGMYFEMIIYCDVREFKVAVNGVHSLEYKHRFKDLSSIDTLAVDGDIRLLDVRSW
B1: no binding.
